This assay concerns the target HER2 (human, UniProt P04626 23-1255). Nature of the assay: cell-based or functional assay.

B1: A49-F3′-TriNKET-Trastuzumab (bispecific antibody)
heavy: EVQLVESGGGLVKPGGSLRLSCAASGFTFSSYSMNWVRQAPGKGLEWVSSISSSSSYIYYADSVKGRFTISRDNAKNSLYLQMNSLRAEDTAVYYCARGAPMGAAAGWFDPWGQGTLVTVSSASTKGPSVFPLAPSSKSTSGGTAALGCLVKDYFPEPVTVSWNSGALTSGVHTFPAVLQSSGLYSLSSVVTVPSSSLGTQTYICNVNHKPSNTKVDKKVEPKSCDKTHTCPPCPAPELLGGPSVFLFPPKPKDTLMISRTPEVTCVVVDVSHEDPEVKFNWYVDGVEVHNAKTKPREEQYNSTYRVVSVLTVLHQDWLNGKEYKCKVSNKALPAPIEKTISKAKGQPREPQVCTLPPSRDELTENQVSLTCLVKGFYPSDIAVEWESNGQPENNYKTTPPVLDSDGSFFLYSWLTVDKSRWQQGNVFSCSVMHEALHNHYTQKSLSLSPG
chain: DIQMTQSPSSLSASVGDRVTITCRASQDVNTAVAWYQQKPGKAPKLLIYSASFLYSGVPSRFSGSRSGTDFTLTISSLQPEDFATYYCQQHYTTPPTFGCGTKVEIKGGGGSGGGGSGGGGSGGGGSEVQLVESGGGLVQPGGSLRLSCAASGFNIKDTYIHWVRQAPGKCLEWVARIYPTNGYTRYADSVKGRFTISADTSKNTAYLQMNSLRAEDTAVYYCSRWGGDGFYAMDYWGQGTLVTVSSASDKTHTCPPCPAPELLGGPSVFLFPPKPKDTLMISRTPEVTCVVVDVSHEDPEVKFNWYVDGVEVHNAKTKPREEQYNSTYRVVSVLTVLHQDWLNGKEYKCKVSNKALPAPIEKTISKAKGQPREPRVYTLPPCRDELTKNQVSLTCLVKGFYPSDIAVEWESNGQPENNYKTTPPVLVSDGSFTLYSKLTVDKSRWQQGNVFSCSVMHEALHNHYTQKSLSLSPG
light: DIQMTQSPSSVSASVGDRVTITCRASQGISSWLAWYQQKPGKAPKLLIYAASSLQSGVPSRFSGSGSGTDFTLTISSLQPEDFATYYCQQGVSFPRTFGGGTKVEIKRTVAAPSPPSDEQLKSGTASVVCLLNNFYPREAKVQWKVDNALQSGNSQESVTEQDSKDSTYSLSSTLTLSKADYEKHKVYACEVTHQGLSSPVTKSFNRGEC
In the case of B1, the “EC50 in KHYG-1-CD16V cell killing of Hs578T cells” value came to 0.376 nM, the “EC50 in KHYG-1-CD16V cell-mediated cytolysis of BT-20 cells” value was determined as 1.16 nM and the “fold potency against trastuzumab in triggering NK cell-mediated killing of SKBR-3 cells” value is 2.5 fold.

The values are drawn from patent US20230034186A1 (DRAGONFLY THERAPEUTICS, published 2023).
